From patent US20160305952A1 (ROCHE SEQUENCING SOLUTIONS, published 2016)

B1: NH2-RDPAPAWAHGGG-amide (peptide)
peptide: H-RDPAPAWAHGGG-NH2
notes: free peptide
B2: NH2-EWVHPQFEQKAK-amide (peptide)
peptide: H-EWVHPQFEQKAK-NH2
notes: free peptide

How the values were obtained:
[1] = biological target: T1, streptavidin (UniProt P22629 37-163, limits assumed); assay: SPR, Biacore X100, streptavidin on CM5 chip, peptide in solution
T1 construct: amine-coupled to a CM5 chip for SPR; also called SA
Description: (§1) A selection of streptavidin peptide binders listed in Table 15 were synthesized using standard column-based synthesis techniques by UW Biotechnology center (Madison, Wis.) or by Peptide2.0 (Chantilly, Va.) at 98-99% purity. Strep-tag II peptide NH2-[…]-COOH was purchased from IBA GmbH (Goettingen, Germany). Synthesized peptides were then characterized by Surface Plasmon Resonance (SPR) to identify binding characteristics including the association rate constant (kₛ), dissociation rate constant (kd), and equilibrium dissociation […] (kd/kₐ=KD). In one aspect, SPR experiments were performed by using Biacore X100 instrument (GE Healthcare). Preliminarily, 60 μl of 100 μg/ml streptavidin in 10 mM Na-acetate, pH5.0 was immobilized to flow cell 2 (Fc2) of a sensor chip CM5 (GE Healthcare) using Amine Coupling Kit (GE Healthcare) at 20° C. for 6 min. Peptide stock solutions were prepared at 5 or 10 mM concentration in water and diluted in HBS-EP+ (GE Healthcare) buffer before SPR experiments. Peptide binding was performed in a multiple kinetics mode using HBS-EP+ as a running buffer and 0.2 M NaCl, 10 mM NaOH or 10 mM HCl-glycine, […] as regeneration buffer. Binding kinetics parameters were calculated with Biacore X100 software.

[2] = biological target: T1, streptavidin; assay: SPR
Description: as §1

[3] = biological target: T1, streptavidin; assay: SPR, Biacore X100, streptavidin on CM5 chip, peptide in solution; second KD value printed for the same peptide
Description: as §1

T1 sequence (P22629 37-163 limits assumed): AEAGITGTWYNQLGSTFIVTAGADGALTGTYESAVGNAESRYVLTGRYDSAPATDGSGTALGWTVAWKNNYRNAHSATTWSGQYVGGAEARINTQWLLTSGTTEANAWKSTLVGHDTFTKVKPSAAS

| Binder | Kd [1] [µM] | koff [1] [s⁻¹] | kon [1] [M⁻¹ s⁻¹] | fold change in KD as compared with the parent peptide … [2] [fold] | Kd [3] [µM] |
| --- | --- | --- | --- | --- | --- |
| B1 | 4.66 | 0.0696 | 14900 | ≥ 100 | – |
| B2 | 5.68 | – | – | – | 5.87 |
